This note sets out measurements from patent publication US20260226524A1, “GLUTAMINE SYNTHETASE MARKER FOR RECOMBINANT EXPRESSION” (priority 2023, published 2026).

The test system of assay [1] is Chinese Hamster Ovary CHO-K1 (CCL-61) host cell. The experiment in a line: Flow cytometry analysis of GS expression via UnaG fluorescence in electroporated cell pools. In kind it is cell-based. The following applies: about 3 weeks post-seeding; for UnaG expression of cells (selection efficiency): MSX selection, FIGS. 3A-3B. The text has this:
Vector design: Nearly all selectable marker currently used in GS system is Cricetulus griseus-derived GS. To investigate whether the GS from other species further improve titer or screening efficiency, a set of vectors were designed as described below: • a sequence coding for an eel green fluorescent protein UnaG, a 2A self-cleaving peptide and a glutamine synthetase, placed under the control of the SV40 promoter; • two expression cassettes, in which the sequences coding for the heavy chain and light chain of a human anti-RANKL antibody denosumab were placed under the control of CMV promoters, respectively; • a sequence coding for a protein conferring resistance to ampicillin, for use in prokaryotic cells; and • a prokaryotic origin of replication.
(§1) The 2A self-cleaving peptide allowed relatively equal molar expression of the two products separated by it, namely, the green fluorescent protein UnaG and glutamine synthetase. After random integration, GS expression in each individual cell was evaluated by monitoring UnaG level using flow cytometry. Denosumab here served as the secreted reporter for assessing titers using selectable glutamine synthetase markers from different species. The vectors differed from one another by the GS-coding sequences, which were derived from Chinese hamster (Cricetulus griseus), koala (Phascolarctos cinerecus), vesper bat (Pipistrellus kuhlii), gerbil (Meriones unguiculatus), ostrich (Struthio camelus australis), junglefowl (Gallus gallus), pigeon (Columbia Livia), and snake (Pseudonaja textilis), respectively.
(§2) Electroporation and cell screening: Expression vectors described above were first linearized by the restriction endonuclease Pvul (there was one Pvul site in the ampicillin resistant gene). Then linearized vectors were introduced into the host cell using cell electroporator (Lonza Nuleofector 2b). The host cell was derived from ATCC wild-type Chinese Hamster Ovary CHO-K1 (CCL-61) and adapted to serum-free suspension culture at Shanghai ZhenGe Biotech Co. Ltd. 24 hours post electroporation, cell pools were plated into culture flasks or 96-well plates (approximately 1, 200 cells/well, 300 wells per condition) in the absence of or presence of MSX (50 μM).
Flow cytometry analysis of GS expression: About 3 weeks post-seeding, cell pools electroporated with GS gene from indicated species were analyzed using Attune NxT flow cytometer (FIGS. 3A-3C). […] As shown, when the GS from Chinese Hamster was used as the selectable marker, most tested cells (>98%) remained UnaG “negative” in the presence of the MSX, indicating low selection efficiency.
(In flow cytometry, cells or beads pass a laser one at a time.)

Assay [2] shares this test system. The assay is described as follows: Bio-Layer Interferometry (Octet) analysis of denosumab expression in supernatants of cell pools selected with GS markers. The class given is cell-based. The following applies: 50 μM MSX; for pools expressed detectable denosumab (>0.125 ug/mL): Day 20, among 300 seeded pools in 96-well plates, GS used as selectable marker; for median expression value of denosumab of positive pools: Day 20, positive pools (>0.125 ug/mL), Octet ProA biosensor. The method, then: Vector design: Nearly all selectable marker currently used in GS system is Cricetulus griseus-derived GS.
as §1, with “After” for “The 2A self-cleaving peptide allowed relatively equal molar expression of the two products separated by it, namely, the green fluorescent protein UnaG and glutamine synthetase. After”
as §2

B1: snake GS: Pseudonaja textilis glutamine synthetase, SEQ ID NO: 3 (nucleotide SEQ ID NO: 12), used as selectable marker (protein, listed as Pseudonaja textilis)
chain: MATSASSHLSKTIKQMYMKLPQGDKVQAMYIWIDGTGEFLRCKTRTLEREPKNVEDLPEWNFDGSSTFQSEGSNSDMYLVPSAMFRDPFRKDPNKLVLCEVLKYNRKPAETNLRSTCKRIMDMVSNQNPWFGMEQEYTLLGTDGHPFGWPSNGFPGPQGPYYCGVGADKAYGRDVVEAHYRACLYAGVNIGGTNAEVMPAQWEFQVGPCEGVDMGDHLWIARFILHRVCEDFGVIVSFDPKPIPGNWNGAGCHTNFSTKNMREEGGLKQIEDAIEKLGKRHQYHIRAYDPKGGLDNARRLTGFHETSNIHEFSAGVANRGASIRIPRNVGQVKKGYFEDRRPSANCDPYAVTEALVRTCLLNETGDEPFEYKN
modifications: Snake GS
As to B1, the “UnaG expression of cells (selection efficiency)” value in assay [1] is “significant amounts of cells showed positive UnaG expression”. For the same molecule, in assay [2], the “pools expressed detectable denosumab (>0.125 ug/mL)” value (shortened to “pools … (>0.125 ug/mL)”) amounted to 38.0% and the “median expression value of denosumab of positive pools” value (from here on “median expression value”) worked out at 1.75 µg/mL.

B2: Chinese hamster GS: Cricetulus griseus glutamine synthetase, SEQ ID NO: 9 (nucleotide SEQ ID NO: 18), Uniprot P04773; traditional selectable marker (protein, listed as Cricetulus griseus)
chain: MATSASSHLNKGIKQMYMSLPQGEKVQAMYIWVDGTGEGLRCKTRTLDCEPKCVEELPEWNFDGSSTFQSESSNSDMYLSPVAMFRDPFRKEPNKLVFCEVFKYNQKPAETNLRHTCKRIMDMVSNQHPWFGMEQEYTLLGTDGHPFGWPSDGFPGPQGLYYCGVGADKAYRRDIMEAHYRACLYAGVKITGTYAEVKHAQWEFQIGPCEGIRMGDHLWVARFILHRVCKDFGVIATFDSKPIPGNWNGAGCHTNFSTKTMREENGLKHIKEAIEKLSKRHRYHIRAYDPKGGLDNARRLTGFHKTSNINDFSAGVADRSASIRIPRTVGQEKKGYFEARCPSANCDPFAVTEAIVRTCLLNETGDQPFQYKN
modifications: Hamster GS
As to B2, the “tested cells remaining UnaG negative” value in assay [1] (in the presence of the MSX (50 μM)) is given as more than 98%. Moreover, in assay [2], the “pools … (>0.125 ug/mL)” value was found to be 4.3% and the “median expression value” value stood at 1.07 µg/mL.

B3: junglefowl GS: Gallus gallus glutamine synthetase, SEQ ID NO: 6 (nucleotide SEQ ID NO: 15), used as selectable marker (protein, listed as Gallus gallus)
chain: MLRSLQCLLAYRVGSLPLRSWGHRLATTAHARTALASSAAMATSASSHLSKAIKHMYMKLPQGEKVQAMYIWIDGTGEHLRCKTRTLDHEPKSLEDLPEWNFDGSSTFQAEGSNSDMYLRPAAMFRDPFRKDPNKLVLCEVFKYNRQSADTNLRHTCRRIMDMVSNQHPWFGMEQEYTLLGTDGHPFGWPSNGFPGPQGPYYCGVGADKAYGRDIVEAHYRACLYAGVKIGGTNAEVMPAQWEFQVGPCEGIEMGDHLWIARFILHRVCEDFGVIVSFDPKPIPGNWNGAGCHTNFSTKNMREDGGLKHIEEAIEKLSKRHQYHIRAYDPKGGLDNARRLTGFHETSSIHEFSAGVANRGASIRIPRNVGHEKKGYFEDRRPSANCDPYAVTEALVRTCLLNETGDEPFEYKN
modifications: Junglefowl GS
Turning to B3, in assay [1], the “UnaG expression of cells (selection efficiency)” value is “significant amounts of cells showed positive UnaG expression”. For the same molecule, in assay [2], the “pools … (>0.125 ug/mL)” value worked out at 73.6% and the “median expression value” value worked out at 2.51 µg/mL.

B4: gerbil GS: Meriones unguiculatus glutamine synthetase, SEQ ID NO: 7 (nucleotide SEQ ID NO: 16), used as selectable marker (protein, listed as Meriones unguiculatus)
chain: MATSASSQLNKGIKQTYLALPQGEKVQAMYIWVDGTGEGLRCKTRTLDCEPKSVEELPEWNFDGSSTFQSEGSNSDMYLTPVAMFRDPFRKEPNKLVFCEVFKYNRKPAETNLRHSCKRIMEMVSNQRPWFGMEQEYTLMGTDGHPFGWPSNGFPGPQGPYYCGVGADKAYGRDIVEAHYRACLYAGVKIAGTNAEVMPAQWEFQIGPCEGVRMGDHLWVARFILHRVCEDFGVIATFDPKPIPGNWNGAGCHTNFSTKAMREENGLKFIEEAIEKLSKRHQYHIRAYDPKGGLDNARRLTGFHETSNINDFSAGVANRSASIRIPRTVGQEKKGYLEDRRPSANCDPYAVTEALVRTCLLNETGDEPFQYKN
modifications: Gerbil GS
On to B4, for which the “UnaG expression of cells (selection efficiency)” value in assay [1] is listed as “significant amounts of cells showed positive UnaG expression”. In assay [2], the “pools … (>0.125 ug/mL)” value came out at 63.6% and the “median expression value” value turned out to be 2.67 µg/mL.

B5: pigeon GS: Columbia Livia glutamine synthetase, SEQ ID NO: 5 (nucleotide SEQ ID NO: 14), used as selectable marker (protein, listed as Columbia livia)
chain: MALLRSVQCLLTYRASSYRLPALGGFVNLLQHSGGDRSATAACTRNPLVRSAAMATSASSHLSKAIKHMYMKLPQGDKVQAMYIWIDGTGEHLRCKTRTLDHEPKSLEDLPEWNFDGSSTFQSEGSNSDMYLRPAAMFRDPFRKDPNKLVLCEVFKYNRQSAETNLRHTCRRIMDMVSNQHPWFGMEQEYTLLGTDGHPFGWPSNGFPGPQGPYYCGVGADKAYGRDIVEAHYRACLYAGVKIGGTNAEVMPAQWEFQVGPCEGIEMGDHLWIARFILHRVCEDFGVIVSFDPKPIPGNWNGAGCHTNFSTKEMREDGGLKHIEEAIEKLSKRHQYHIRAYDPKGGLDNARRLTGFHETSNIHEFSAGVANRGASIRIPRSVGHEKRGYFEDRRPSANCDPYAVTEALVRTCLLNETGDEPFEYKN
modifications: pigeon GS
B5: in assay [1], the “UnaG expression of cells (selection efficiency)” value is recorded as “significant amounts of cells showed positive UnaG expression”. Moreover, in assay [2], the “pools … (>0.125 ug/mL)” value is reported as 52.0% and the “median expression value” value was 2.27 µg/mL.

B6: ostrich GS: Struthio camelus australis glutamine synthetase, SEQ ID NO: 2 (nucleotide SEQ ID NO: 11), used as selectable marker (protein, listed as Struthio camelus)
chain: MATSASSHLSKAIKHMYMKLPQGEKVQAMYIWIDGTGEHLRCKTRTLDHEPKSLEDLPEWNFDGSSTFQAEGSNSDMYLRPAAMFRDPFRKDPNKLVLCEVFKYNRQSAETNLRHTCRRIMDMVSNQHPWFGMEQEYTLLGTDGHPFGWPSNGFPGPQGPYYCGVGADKAYGRDIVEAHYRACLYAGVKIGGTNAEVMPAQWEFQVGPCEGIEMGDHLWIARFILHRVCEDFGVIVSFDPKPIPGNWNGAGCHTNFSTKSMREDGGLKHIEEAIEKLGKRHQYHIRAYDPKGGLDNARRLTGFHETSSIHEFSAGVANRGASIRIPRNVGHEKKGYFEDRRPSANCDPYAVTEALVRTCLLNETGDEPFEYKN
modifications: OstrichGS
In the case of B6, the “UnaG expression of cells (selection efficiency)” value in assay [1] is “significant amounts of cells showed positive UnaG expression”. For the same molecule, in assay [2], the “pools … (>0.125 ug/mL)” value is 65.3% and the “median expression value” value is 2.57 µg/mL.

B7: koala GS: Phascolarctos cinerecus glutamine synthetase, SEQ ID NO: 1 (nucleotide SEQ ID NO: 10), used as selectable marker (protein, listed as Phascolarctos cinereus)
chain: MATSASSHLNKNIKQMYMNLPQGNKVLAMYIWIDGTGEGLRCKTRTLDSEPKSIDDLPEWNFDGSSTYQSEGSNSDMYLVPAALFRDPFRKDPNKLVFCEVFKYNRKPAETNLRHTCKRIMDMVTNQKPWFGMEQEYTLMGTDGHPFGWPSNGFPGPQGPYYCGVGADKAYGRDIAEAHYRACLYAGVKIVGTNAEAMPSQWEFQIGPCEGIEMGDHLWVARFILHRVCEDFGMIVTFDPKPIPGNWNGAGCHTNFSTKAMREENGLKFIEEAIERLSKRHKYHIRAYDPKGGLDNARRLTGFNETSNINEFSAGVANRGASIRIPRMVGQDKKGYFEDRRPSANCDPYAVTEALIRTCLLNETGEEPFQYKN
modifications: Koala GS
Take B7: the “UnaG expression of cells (selection efficiency)” value in assay [1] was “significant amounts of cells showed positive UnaG expression”. In assay [2], the “pools … (>0.125 ug/mL)” value was found to be 85.6% and the “median expression value” value came to 2.86 µg/mL.
